Assay results published in patent US20090099093A1 (Stanford University, published 2009).
No end group written: not given here.

Biological target: Mushroom tyrosinase (mushroom, UniProt C7FF04 1-392)
Experiment: cell-based or functional assay

Sequence of Mushroom tyrosinase (C7FF04 1-392): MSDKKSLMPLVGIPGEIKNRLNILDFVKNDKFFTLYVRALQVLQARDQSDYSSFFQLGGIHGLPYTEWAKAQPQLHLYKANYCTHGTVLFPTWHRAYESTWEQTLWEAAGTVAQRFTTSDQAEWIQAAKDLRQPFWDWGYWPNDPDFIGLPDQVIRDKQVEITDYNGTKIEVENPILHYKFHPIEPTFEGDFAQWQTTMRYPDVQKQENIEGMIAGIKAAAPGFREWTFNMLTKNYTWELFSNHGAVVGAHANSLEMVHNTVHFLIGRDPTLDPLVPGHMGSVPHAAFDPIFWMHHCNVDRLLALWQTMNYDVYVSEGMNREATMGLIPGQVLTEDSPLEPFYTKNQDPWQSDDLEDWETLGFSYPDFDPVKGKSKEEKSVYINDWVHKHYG

IC50 (inhibition of mushroom tyrosinase activity, dopachrome at 475 nm, L-tyrosine substrate) [mM]	Binder
2.73	Pro-Leu-Gly-OH [PLG-OH]
0.123	RADSRADC [RA peptide (RADSRADC)]
8	SFLLRN [SF peptide (SFLLRN)]
